The supplement of paper PMC9112550, “Optimization of the antimicrobial peptide Bac7 by deep mutational scanning” (BMC Biology, 2022)

These sequences were tested on Escherichia coli TOP10 (assay: shrunken log2 fold change of peptide-encoding DNA abundance (4.5 h post-induction vs induction); higher = less antimicrobial activity (less host growth inhibition)). Settings: time post-induction: 4.5 h; library: site-saturation at positions 5, 18, 19, 20.
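Further: peptides expressed intracellularly from a pBAD plasmid library in pooled LB shake-flask culture, induced with 0.3% L-arabinose, DNA abundance read by NGS, three biological replicates, DESeq2 with apeglm shrinkage.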

| Sequence | shrunken log2 fold change |
| --- | --- |
| RRIRRRPPRLPRPRPRPVTQPRP | 0.197 |
| RRIRTRPPRLPRPRPRPEIIPRP | 0.095 |
| RRIRVRPPRLPRPRPRPMKFPRP | -0.124 |
| RRIRVRPPRLPRPRPRPFCKPRP | -0.144 |
| RRIRPRPPRLPRPRPRPITLPRP | 0.0118 |
| RRIRYRPPRLPRPRPRPAPLPRP | -0.0323 |
| RRIRVRPPRLPRPRPRPWGIPRP | -0.265 |
| RRIRDRPPRLPRPRPRPIMSPRP | -0.0134 |
| RRIRRRPPRLPRPRPRPYYPPRP | -0.468 |
| RRIRFRPPRLPRPRPRPKEGPRP | 0.0546 |
| RRIRNRPPRLPRPRPRPQGKPRP | 0.0697 |
| RRIRLRPPRLPRPRPRPLFGPRP | -0.0652 |
| RRIRARPPRLPRPRPRPSNEPRP | 0.167 |
| RRIRCRPPRLPRPRPRPGRVPRP | 0.288 |
| RRIRPRPPRLPRPRPRPCDRPRP | 0.0787 |
| RRIRTRPPRLPRPRPRPQIAPRP | -0.0663 |
| RRIRRRPPRLPRPRPRPVRWPRP | 0.825 |
| RRIRSRPPRLPRPRPRPVQTPRP | 0.826 |
| RRIRQRPPRLPRPRPRPRSKPRP | 0.185 |
| RRIRVRPPRLPRPRPRPRCKPRP | 0.039 |
| RRIRRRPPRLPRPRPRPDVFPRP | 0.06 |
| RRIRNRPPRLPRPRPRPAPKPRP | 0.377 |
| RRIRVRPPRLPRPRPRPVSYPRP | -0.51 |
| RRIRKRPPRLPRPRPRPAMDPRP | 0.231 |
| RRIRFRPPRLPRPRPRPIDDPRP | -0.548 |

| Sequence | shrunken log2 fold change |
| --- | --- |
| RRIRGRPPRLPRPRPRPMVLPRP | -0.0349 |
| RRIRMRPPRLPRPRPRPDIFPRP | 0.118 |
| RRIRSRPPRLPRPRPRPQPYPRP | -0.159 |
| RRIRMRPPRLPRPRPRPSSQPRP | 0.212 |
| RRIRVRPPRLPRPRPRPVWMPRP | 0.52 |
| RRIRMRPPRLPRPRPRPAEPPRP | 0.449 |
| RRIRWRPPRLPRPRPRPKRMPRP | 0.217 |
| RRIRGRPPRLPRPRPRPGKVPRP | 0.598 |
| RRIRARPPRLPRPRPRPDESPRP | 0.0602 |
| RRIRSRPPRLPRPRPRPYYLPRP | -0.7 |
| RRIRMRPPRLPRPRPRPLYQPRP | -0.38 |
| RRIRMRPPRLPRPRPRPFFYPRP | -0.123 |
| RRIRPRPPRLPRPRPRPWGHPRP | -0.0804 |
| RRIRCRPPRLPRPRPRPKMTPRP | 0.0216 |
| RRIRDRPPRLPRPRPRPALSPRP | 0.0869 |
| RRIRPRPPRLPRPRPRPYRSPRP | -0.295 |
| RRIRDRPPRLPRPRPRPTFTPRP | 0.347 |
| RRIRDRPPRLPRPRPRPWTRPRP | -0.231 |
| RRIRTRPPRLPRPRPRPWSQPRP | 0.0431 |
| RRIRCRPPRLPRPRPRPVTLPRP | -0.34 |
| RRIRTRPPRLPRPRPRPDKQPRP | 0.0419 |
| RRIRHRPPRLPRPRPRPFTRPRP | -0.132 |
| RRIRVRPPRLPRPRPRPTKIPRP | -0.321 |
| RRIRARPPRLPRPRPRPKCPPRP | -0.0505 |
| RRIRVRPPRLPRPRPRPGNYPRP | -0.162 |

| Sequence | shrunken log2 fold change |
| --- | --- |
| RRIRTRPPRLPRPRPRPRQAPRP | 0.171 |
| RRIRGRPPRLPRPRPRPNTYPRP | 0.106 |
| RRIRLRPPRLPRPRPRPEEFPRP | -0.0121 |
| RRIRYRPPRLPRPRPRPECSPRP | -0.15 |
| RRIRNRPPRLPRPRPRPKAVPRP | 0.301 |
| RRIRERPPRLPRPRPRPLWHPRP | -0.0827 |
| RRIRCRPPRLPRPRPRPTQPPRP | 0.222 |
| RRIRNRPPRLPRPRPRPCVWPRP | -0.024 |
| RRIRYRPPRLPRPRPRPWGQPRP | 0.00911 |
| RRIRERPPRLPRPRPRPDCIPRP | 0.0113 |
| RRIRKRPPRLPRPRPRPQDFPRP | 0.00806 |
| RRIRPRPPRLPRPRPRPWNQPRP | -0.759 |
| RRIRSRPPRLPRPRPRPEHQPRP | 0.163 |
| RRIRYRPPRLPRPRPRPCYDPRP | -0.379 |
| RRIRRRPPRLPRPRPRPELFPRP | 1.06 |
| RRIRQRPPRLPRPRPRPFNDPRP | 0.0753 |
| RRIRRRPPRLPRPRPRPFDSPRP | -0.21 |
| RRIRSRPPRLPRPRPRPECWPRP | 1.03 |
| RRIRIRPPRLPRPRPRPCVGPRP | -0.164 |
| RRIRDRPPRLPRPRPRPNIVPRP | -0.0381 |
| RRIRMRPPRLPRPRPRPESHPRP | 0.076 |
| RRIRHRPPRLPRPRPRPCKLPRP | -0.714 |
| RRIRKRPPRLPRPRPRPCVIPRP | 0.0227 |
| RRIRPRPPRLPRPRPRPLPDPRP | 0.179 |
| RRIRSRPPRLPRPRPRPIYCPRP | -0.876 |

| Sequence | shrunken log2 fold change |
| --- | --- |
| RRIRTRPPRLPRPRPRPSGSPRP | 0.204 |
| RRIRARPPRLPRPRPRPHQDPRP | -0.126 |
| RRIRQRPPRLPRPRPRPEHRPRP | -0.271 |
| RRIRGRPPRLPRPRPRPCMNPRP | 0.104 |
| RRIRNRPPRLPRPRPRPWWHPRP | -0.104 |
| RRIRVRPPRLPRPRPRPDTPPRP | -0.0915 |
| RRIRQRPPRLPRPRPRPISDPRP | 0.0109 |
| RRIRVRPPRLPRPRPRPAIAPRP | 0.107 |
| RRIRIRPPRLPRPRPRPYNIPRP | -0.257 |
| RRIRCRPPRLPRPRPRPCIWPRP | -0.0143 |
| RRIRHRPPRLPRPRPRPTQWPRP | 0.0126 |
| RRIRWRPPRLPRPRPRPNVCPRP | 0.0917 |
| RRIRIRPPRLPRPRPRPEWRPRP | 0.257 |
| RRIRDRPPRLPRPRPRPSEPPRP | 0.06 |
| RRIRKRPPRLPRPRPRPIQLPRP | -0.0418 |
| RRIRNRPPRLPRPRPRPHSGPRP | -0.517 |
| RRIRDRPPRLPRPRPRPLTGPRP | 0.266 |
| RRIRNRPPRLPRPRPRPQQCPRP | -0.0851 |
| RRIRTRPPRLPRPRPRPKHEPRP | -0.3 |
| RRIRERPPRLPRPRPRPNTMPRP | -0.122 |
| RRIRCRPPRLPRPRPRPPFFPRP | 0.449 |
| RRIRLRPPRLPRPRPRPLMKPRP | 0.0215 |
| RRIRYRPPRLPRPRPRPDIYPRP | 0.0393 |
| RRIRHRPPRLPRPRPRPGTQPRP | -0.128 |
| RRIRYRPPRLPRPRPRPTRIPRP | -0.0491 |

| Sequence | shrunken log2 fold change |
| --- | --- |
| RRIRIRPPRLPRPRPRPISAPRP | -0.0879 |
| RRIRGRPPRLPRPRPRPLNKPRP | 0.11 |
| RRIRWRPPRLPRPRPRPPRMPRP | 0.348 |
| RRIRCRPPRLPRPRPRPWWMPRP | -0.0465 |
| RRIRERPPRLPRPRPRPFMDPRP | -0.243 |
| RRIRPRPPRLPRPRPRPALEPRP | 0.313 |
| RRIRRRPPRLPRPRPRPKYEPRP | 0.811 |
| RRIRDRPPRLPRPRPRPCKQPRP | -0.00787 |
| RRIRPRPPRLPRPRPRPTHFPRP | 0.442 |
| RRIRDRPPRLPRPRPRPVQFPRP | -0.0196 |
| RRIRFRPPRLPRPRPRPAFKPRP | -0.347 |
| RRIRTRPPRLPRPRPRPPGFPRP | 0.287 |
| RRIRVRPPRLPRPRPRPYLAPRP | -0.413 |
| RRIRNRPPRLPRPRPRPAQRPRP | -0.0476 |
| RRIRERPPRLPRPRPRPIYDPRP | -0.137 |
| RRIRSRPPRLPRPRPRPVPHPRP | 0.0775 |
| RRIRYRPPRLPRPRPRPDPRPRP | -0.0317 |
| RRIRDRPPRLPRPRPRPALQPRP | 0.671 |
| RRIRLRPPRLPRPRPRPIHDPRP | -0.302 |
| RRIRNRPPRLPRPRPRPISFPRP | -0.0972 |
| RRIRDRPPRLPRPRPRPHRWPRP | 0.00819 |
| RRIRTRPPRLPRPRPRPKLLPRP | 0.272 |
| RRIRTRPPRLPRPRPRPHFGPRP | -0.00836 |
| RRIRWRPPRLPRPRPRPIHFPRP | -0.357 |
| RRIRRRPPRLPRPRPRPEAEPRP | 0.853 |

| Sequence | shrunken log2 fold change |
| --- | --- |
| RRIRYRPPRLPRPRPRPTEYPRP | -0.204 |
| RRIRLRPPRLPRPRPRPCEVPRP | 0.0632 |
| RRIRRRPPRLPRPRPRPRATPRP | 0.162 |
| RRIRNRPPRLPRPRPRPVINPRP | -0.512 |
| RRIRCRPPRLPRPRPRPFMRPRP | 0.0501 |
| RRIRQRPPRLPRPRPRPNQWPRP | 0.0886 |
| RRIRTRPPRLPRPRPRPCISPRP | -0.503 |
| RRIRIRPPRLPRPRPRPCTAPRP | -0.285 |
| RRIRVRPPRLPRPRPRPMRLPRP | 0.617 |
| RRIRSRPPRLPRPRPRPDYTPRP | -0.342 |
| RRIRWRPPRLPRPRPRPLAMPRP | 0.0898 |
| RRIRFRPPRLPRPRPRPQFDPRP | -0.286 |
| RRIRFRPPRLPRPRPRPNECPRP | -0.00063 |
| RRIRWRPPRLPRPRPRPSNKPRP | -0.403 |
| RRIRDRPPRLPRPRPRPQSNPRP | -0.109 |
| RRIRTRPPRLPRPRPRPASIPRP | -0.13 |
| RRIRDRPPRLPRPRPRPHKWPRP | -0.202 |
| RRIRQRPPRLPRPRPRPHNLPRP | -0.183 |
| RRIRIRPPRLPRPRPRPQFCPRP | -0.32 |
| RRIRKRPPRLPRPRPRPALLPRP | 0.246 |
| RRIRERPPRLPRPRPRPFPTPRP | -0.573 |
| RRIRRRPPRLPRPRPRPCDKPRP | -0.00163 |
| RRIRIRPPRLPRPRPRPLWEPRP | 0.223 |
| RRIRVRPPRLPRPRPRPAQDPRP | 0.0947 |
| RRIRFRPPRLPRPRPRPGMDPRP | -0.25 |
